Laboratory results as given in article PMC9482650, “Quantitative fragmentomics allow affinity mapping of interactomes” (Nature Communications, 2022).
Residue numbers refer to the chain shown, from its start.

How the values were obtained:
Assay in all cases: holdup assay
Set-up in all cases: key: below the threshold = too weak to quantify, mostly under pKd 3.1 to 4
[1] = target: T1, ARHGAP21, Q5T5U3
T1 sequence (Q5T5U3 45-169, limits assumed, looked up): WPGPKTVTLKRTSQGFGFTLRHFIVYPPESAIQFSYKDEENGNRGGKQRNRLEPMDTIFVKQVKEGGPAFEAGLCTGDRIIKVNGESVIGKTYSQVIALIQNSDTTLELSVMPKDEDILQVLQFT

[2] = target: T2, ARHGEF11, O15085
T2 sequence (O15085 42-136, limits assumed, looked up): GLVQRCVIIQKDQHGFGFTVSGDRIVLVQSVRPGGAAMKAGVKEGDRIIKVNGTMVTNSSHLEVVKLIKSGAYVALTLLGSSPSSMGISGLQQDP

[3] = target: T3, DFNB31_3, Q9P202
T3 sequence (Q9P202 811-907, limits assumed, looked up): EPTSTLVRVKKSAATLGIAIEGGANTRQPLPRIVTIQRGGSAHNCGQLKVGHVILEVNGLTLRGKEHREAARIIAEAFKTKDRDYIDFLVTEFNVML

[4] = target: DLG4_2, P78352
DLG4_2, P78352, sequence (P78352 155-259): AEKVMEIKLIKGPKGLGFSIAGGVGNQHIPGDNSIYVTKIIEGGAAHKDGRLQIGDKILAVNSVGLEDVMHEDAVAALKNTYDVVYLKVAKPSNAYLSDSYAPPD

[5] = target: T4, FRMPD1, Q5SYB0
T4 sequence (Q5SYB0 52-145, limits assumed, looked up): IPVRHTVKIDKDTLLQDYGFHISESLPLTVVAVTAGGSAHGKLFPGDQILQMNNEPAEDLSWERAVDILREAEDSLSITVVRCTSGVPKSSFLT

[6] = target: GIPC2, Q8TF65; details: plain residues with an end cap or a label only (N-terminal biotin on a linker: ado-ado)
GIPC2, Q8TF65, sequence (Q8TF65 112-203): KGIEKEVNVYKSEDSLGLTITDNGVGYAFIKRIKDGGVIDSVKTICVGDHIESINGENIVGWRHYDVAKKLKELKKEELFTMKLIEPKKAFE

[7] = target: GRID2IP_2, A4D2P6
GRID2IP_2, A4D2P6, sequence (A4D2P6 272-370): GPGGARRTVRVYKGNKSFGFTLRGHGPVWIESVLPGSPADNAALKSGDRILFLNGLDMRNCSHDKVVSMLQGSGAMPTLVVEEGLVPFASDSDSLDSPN

[8] = target: T5, GRIP1_5, Q9Y3R0
T5 sequence (Q9Y3R0 568-668, limits assumed, looked up): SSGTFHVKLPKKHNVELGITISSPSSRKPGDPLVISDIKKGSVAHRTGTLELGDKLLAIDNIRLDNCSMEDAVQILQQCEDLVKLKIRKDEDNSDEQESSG

[9] = target: GRIP2_4, Q9C0E4
GRIP2_4, Q9C0E4, sequence (Q9C0E4 446-548): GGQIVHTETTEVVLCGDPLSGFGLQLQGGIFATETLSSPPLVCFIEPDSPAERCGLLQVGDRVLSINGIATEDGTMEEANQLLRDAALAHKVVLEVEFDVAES

[10] = target: IL16_3, Q14005
IL16_3, Q14005, sequence (Q14005 1107-1207): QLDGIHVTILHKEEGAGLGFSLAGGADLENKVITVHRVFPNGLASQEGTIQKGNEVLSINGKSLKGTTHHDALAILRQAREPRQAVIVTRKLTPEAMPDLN

[11] = target: Inadl_10, Q8NI35
Inadl_10, Q8NI35, sequence (Q8NI35 1673-1763): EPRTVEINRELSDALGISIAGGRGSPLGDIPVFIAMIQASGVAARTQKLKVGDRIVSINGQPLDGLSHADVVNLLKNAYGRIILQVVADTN

[12] = target: Inadl_8, Q8NI35
Inadl_8, Q8NI35, sequence (Q8NI35 1425-1530): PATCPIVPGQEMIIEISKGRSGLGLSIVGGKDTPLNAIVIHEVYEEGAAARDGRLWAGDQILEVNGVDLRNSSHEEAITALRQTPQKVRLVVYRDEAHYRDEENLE

[13] = target: T6, LIN7B, Q9HAP6
T6 sequence (Q9HAP6 88-185, limits assumed, looked up): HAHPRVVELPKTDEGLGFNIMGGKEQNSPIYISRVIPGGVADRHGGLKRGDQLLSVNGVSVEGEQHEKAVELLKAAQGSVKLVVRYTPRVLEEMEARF

[14] = target: T7, LIN7C, Q9NUP9
T7 sequence (Q9NUP9 88-185, limits assumed, looked up): T6 sequence (Q9HAP6 88-185, limits assumed, looked up) with A2S, D13E, V35I, V40I, Q65H, S79K, R89K, A96S

[15] = target: LNX1_1, Q8TBB1
LNX1_1, Q8TBB1, sequence (Q8TBB1 261-371): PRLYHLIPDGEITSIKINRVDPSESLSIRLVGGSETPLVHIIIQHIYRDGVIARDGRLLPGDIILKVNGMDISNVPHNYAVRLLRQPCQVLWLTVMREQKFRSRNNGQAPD

[16] = target: MAGI2_4, Q86UL8
MAGI2_4, Q86UL8, sequence (Q86UL8 772-865): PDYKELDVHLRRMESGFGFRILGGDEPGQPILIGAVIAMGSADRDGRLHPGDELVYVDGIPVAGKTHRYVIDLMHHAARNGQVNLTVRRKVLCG

[17] = target: T8, MPP2, Q14168
T8 sequence (Q14168 180-250, limits assumed, looked up): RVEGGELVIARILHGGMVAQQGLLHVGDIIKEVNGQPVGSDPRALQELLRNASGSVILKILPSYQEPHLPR

[18] = target: T9, NHERF3_3, Q5T2W1
T9 sequence (Q5T2W1 238-333, limits assumed, looked up): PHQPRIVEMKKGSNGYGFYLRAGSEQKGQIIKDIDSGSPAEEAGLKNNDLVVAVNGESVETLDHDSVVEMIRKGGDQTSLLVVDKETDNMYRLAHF

[19] = target: NHERF4_2, Q86UT5
NHERF4_2, Q86UT5, sequence (Q86UT5 220-308): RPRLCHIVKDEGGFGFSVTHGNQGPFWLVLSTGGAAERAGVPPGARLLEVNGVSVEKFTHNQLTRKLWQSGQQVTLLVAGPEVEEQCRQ

[20] = target: NOS1, P29475
NOS1, P29475, sequence (P29475 9-101): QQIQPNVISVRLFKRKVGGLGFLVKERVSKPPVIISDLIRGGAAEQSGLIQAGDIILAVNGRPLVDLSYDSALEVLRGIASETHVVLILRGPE

[21] = target: T10, PARD3B_1, Q8TEW8
T10 sequence (Q8TEW8 196-299, limits assumed, looked up): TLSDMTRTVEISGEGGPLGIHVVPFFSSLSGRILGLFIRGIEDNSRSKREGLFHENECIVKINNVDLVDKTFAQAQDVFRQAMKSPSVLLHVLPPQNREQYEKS

[22] = target: PARD3_3, Q8TEW0
PARD3_3, Q8TEW0, sequence (Q8TEW0 582-685): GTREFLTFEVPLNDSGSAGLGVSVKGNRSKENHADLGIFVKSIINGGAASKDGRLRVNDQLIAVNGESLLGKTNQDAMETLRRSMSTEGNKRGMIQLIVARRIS

[23] = target: T11, PCLO, Q9Y6V0
T11 sequence (Q9Y6V0 4491-4600, limits assumed, looked up): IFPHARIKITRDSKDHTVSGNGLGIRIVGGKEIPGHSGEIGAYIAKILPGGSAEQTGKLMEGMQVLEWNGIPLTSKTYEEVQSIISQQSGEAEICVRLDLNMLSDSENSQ

[24] = target: T12, PTPN13_1, Q12923
T12 sequence (Q12923 1088-1188, limits assumed, looked up): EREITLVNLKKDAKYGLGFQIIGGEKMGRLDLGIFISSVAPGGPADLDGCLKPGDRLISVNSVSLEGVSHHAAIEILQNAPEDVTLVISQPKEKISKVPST

[25] = plain residues with an end cap or a label only (N-terminal biotin on a linker: ado-ado)
[26] = modified: acetyl on K at position -1 from the C-terminal residue

Measured: pKd

SKSLERATQL [COMMD3, Q9UBI1]
3.97: [4]; [25]
3.49: [6]
below the threshold: [1]; [25] | [5]; [25] | [8]; [25] | [9]; [25] | [10]; [25] | [11]; [25] | [14]; [25] | [17]; [25] | [19]; [25] | [22]; [25] | [23]; [25] | [24]; [25]
3.94: [16]; [25]
4.25: [3]; [25]
3.87: [13]; [25] | [15]; [25]
4.02: [20]; [25]
3.95: [21]; [25]
4.69: [7]; [25]
4.57: [2]; [25]
3.8: [18]; [25]
3.52: [12]; [25]

GDHLDRRVVL [VAC14, Q08AM6]
3.54: [1]; [25]
3.48: [22]; [25]
below the threshold: [2]; [25] | [4]; [25] | [5]; [25] | [6] | [7]; [25] | [8]; [25] | [9]; [25] | [11]; [25] | [12]; [25] | [13]; [25] | [15]; [25] | [16]; [25] | [17]; [25] | [18]; [25] | [19]; [25] | [20]; [25] | [23]; [25]
5.17: [21]; [25]
3.82: [3]; [25]
3.7: [24]; [25]
4.04: [14]; [25]
3.58: [10]; [25]

LRYARPADAL [PPP1R3G, B7ZBB8]
4.36: [20]; [25]
3.9: [1]; [25]
below the threshold: [2]; [25] | [3]; [25] | [4]; [25] | [5]; [25] | [6] | [7]; [25] | [8]; [25] | [9]; [25] | [10]; [25] | [11]; [25] | [12]; [25] | [13]; [25] | [14]; [25] | [15]; [25] | [16]; [25] | [17]; [25] | [18]; [25] | [19]; [25] | [21]; [25] | [22]; [25] | [23]; [25] | [24]; [25]

KSTTRSSSSC [NDE1, Q9NXR1;Q9NXR1-2]
4.18: [12]; [25]
below the threshold: [1]; [25] | [2]; [25] | [4]; [25] | [5]; [25] | [8]; [25] | [9]; [25] | [10]; [25] | [11]; [25] | [15]; [25] | [16]; [25] | [17]; [25] | [18]; [25] | [19]; [25] | [20]; [25] | [21]; [25] | [22]; [25] | [23]; [25] | [24]; [25]

DEDQHTQITKV [PTEN_Ac, P60484]
4.58: [4]; [26]
4.82: [12]; [26]
3.61: [15]; [26]
4.39: [7]; [26]
below the threshold: [1]; [26] | [5]; [26] | [8]; [26] | [9]; [26] | [10]; [26] | [11]; [26] | [14]; [26] | [17]; [26] | [18]; [26] | [19]; [26] | [21]; [26] | [23]; [26] | [24]; [26]
3.81: [20]; [26]
4.25: [3]; [26]
3.87: [16]; [26]
5.16: [2]; [26]
3.97: [22]; [26]
3.57: [13]; [26]

EYRKDNKVAA [LSM14A, Q8ND56;Q8ND56-2]
below the threshold: [2]; [25] | [3]; [25] | [5]; [25] | [6] | [7]; [25] | [9]; [25] | [11]; [25] | [12]; [25] | [14]; [25] | [16]; [25] | [17]; [25] | [18]; [25] | [19]; [25] | [20]; [25] | [21]; [25] | [22]; [25] | [23]; [25] | [24]; [25]
